This note sets out measurements from US20020035240A1 (Amgen, published 2002).

The assay has as its target T1, rat p55CDC (rat, UniProt Q62623 1-499, phosphorylated in CHO cells (sites not given)).
T1 construct: 499 amino acids; In the assays it came from cell lysates: CHO cells transfected with the 1.8 kb rat cDNA (PMTp55s), or the endogenous protein of Rat1 cells
The experiment in a line: co-immunoprecipitation with p55CDC antibody from 35S-labelled CHO cell lysates, SDS-PAGE. As to the method:
Autoradiography was performed for 1 week.
In vitro translation was performed using a nuclease treated rabbit reticulocyte lysate (Promega, Madison, WI) and [³H]-leucine (Amersham TRK683). The mRNA template was produced by using the Stratagene in vitro transcription kit and the p55CDC cDNA subcloned into the Bluescript vector as substrate. Cell lysates were prepared as described (59) after rinsing the plates twice with PBS. Cells were lysed in modified radioimmunoprecipitation assay (RIPA) buffer with additional […] (150 mM NaCl, 1.0% NP-40, 1.0% sodium deoxycholate, 0.1% SDS, 2 mM EDTA, 6 mM Na₂HPO₄, 4 mM NaH₂PO4 50 mM NaF, 200 μM Na₃VO₄, 20 μg/ml aprotinin, 1 μg/ml leupeptin, 10 μg/ml soybean trypsin inhibitor and 50 μg/ml phenylmethyl sulfonyl fluoride). All protease inhibitors were purchased from Sigma. Protein concentrations were estimated using the Bicinchoninic acid reagent (Pierce). For 250 μg lysate in a final volume of 700 μl RIPA buffer, we used 7 μl of affinity purified p55CDC antibodies (140 μg protein/ml) or 12 μl of p55CDC competed antiserum (700 μg protein/ml) which gave an equivalent level of immunoglobulin for both preparations. Immunoprecipitation of p34^cdc2 complexes was done using 10 μl of the p34^cdc2 mouse monoclonal antibody 17 (Santa Cruz Biotechnology, Santa Cruz, Calif.). […]

T1 sequence (Q62623 whole entry D77E): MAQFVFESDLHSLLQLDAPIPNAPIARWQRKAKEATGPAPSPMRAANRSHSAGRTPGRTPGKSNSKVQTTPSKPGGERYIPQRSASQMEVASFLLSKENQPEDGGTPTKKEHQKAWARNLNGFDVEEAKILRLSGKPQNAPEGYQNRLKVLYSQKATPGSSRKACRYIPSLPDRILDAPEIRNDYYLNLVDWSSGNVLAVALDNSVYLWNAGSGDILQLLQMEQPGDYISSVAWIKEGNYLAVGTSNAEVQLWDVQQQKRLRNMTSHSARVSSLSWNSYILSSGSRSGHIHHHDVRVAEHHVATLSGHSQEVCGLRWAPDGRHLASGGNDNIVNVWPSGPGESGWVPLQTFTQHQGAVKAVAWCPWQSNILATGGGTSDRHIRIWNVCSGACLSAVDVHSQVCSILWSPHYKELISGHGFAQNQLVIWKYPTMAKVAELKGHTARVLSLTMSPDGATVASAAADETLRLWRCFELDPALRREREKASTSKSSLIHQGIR

B1: p34cdc2 (CHO cells) (enzyme)
chain: not shown
On to B1, for which the binding result is reported as “no binding”.
